Assay: soluble on expression in E. coli; label from the status in PepcDB or PDB records
For “MGSDKIHHHHHHMSQDDLLSQEEIDALLKGVSGDEDNAQDERASREGKVRPFDPAKQHRIIRERLHALDIINERFARQFRVALFNLMRRSADITVESVRYQSYSEFSRNLPVPTNLNLITMKPLRGSALVVFPPSLVFMVVDNLFGGDGRFLTKSEGREFTRTEQRIIHRMLKMALEGYSESWKSVYPLDIEYTRSELQVKFANITNSPNEIVVNSTFHVEVGNLSSEFNICIPYSMIEPIRDILASPLHDTHPDEEQQWEARMAHEIRHSSVELTADFVDIPLRLRDVTQLSVGDIIPIELPEAVNVSVDGIPVMTCDYGSQKSQRALRVRHLIEHGSSQVAAKDPKDD”, the “soluble on expression in E. coli” value was “not soluble”.
In the case of “MSIKLFSLAKELNVGVGSLAGFLRKKGFDVEDNNPNVRIENEEFDLLLTEFGKSLPKGEAERIRKKFVKQKQGTPASAPSAKEETAGMAAKEAQVIATEVPQDMRPRFTIKGKVETEKPAEPVPSPKDKEPDTVREDKPARETAPVKEETKVVPVKEDKPKEEKPKQEEPKREEPKPEEPVQAAPVAKPVEKPVDKPQQPVMTQKPQEAETPPPAQEMEKKEDTEEVFRLKTNTQEPQVKVVGKIDLSSINSSTRPKKKTKEDRQREQNDADGKKKRKRINKAAVDVKKEAAKVSGEQGKRNAGGGNHSSGNKNNNRPAQQQSNASGGRKNNKRQSLPPKVEISDEDVQRQVKETLARLTTKKTSTTLGRGAKYRKDKRDAASRAAQDAMELNSEEQHTLKLTEFVTVSDLSNMMDVPVNEVIATCMSIGMMVGINQRLDAETINIVAEEFGFKTEFVSADLVEAIAPEEDNEEDLVA”, the “soluble on expression in E. coli” value is reported as “not soluble”.
With “TSTKLNTTTSAAYLSTGIKALDSMLGSKGYQTGSQIIISGRSGTAKTLFATSFAQSAVRQGRKVLFISFEESPNDLIRHVKSINIDLMKYITKKKLHINSRRSVEMGLEDHIISIIELTEEKQFDVLILDPISALLDLGNTMEVKRLFIRFISYMKSLNKTLLFTELIPDYSKELTILGLSSLTETWIRLSNVESNGEFNRLIHIAKARGIKTSNQIKEFYVTDKGINIEAPYLGDNQMMFGSQKSA” the “soluble on expression in E. coli” value was “not soluble”.
For “SLETQQEGMDISSSLRKLGAQSKLIQTYIDQSLMSPNVQLEEVTALNTNQFLIKQDMKEWSSELYPQLILLNSKSKGFVTKFNSYYPTLKSFVDNKEDREGFSDRLEVLQEMAMTNQENTQRQINELTDLKLQLDKKLKDFDTNVATAQGILSTDGTGKIDQLKNEILNTKKAIQNDLQQIALIPGALNEQGFAIFKEVYSLSKEIIEPAAQAGVAAYNKGKEINNSILEAEKKAVQEATEQGKTALEIESAKKAAREAIEKSKQGEIAAAAAAKTQEYDLMKVIDTEKIKKTFGVFAEVNKLTAEQRAYLDDLEKQNQKIYDLTTKLSIADLQKSMLLLTQNDLHTFANQIDVELDLLKRYKEDLNLIKNSITKLSTNVDTTSEQSQKDTLRQLKNVISYLEEQVYKF”, the “soluble on expression in E. coli” value was “soluble”.
In the case of “GSARPSSSMADFRKFFAKAKHIVIISGAGVSAESGVPTFRGAGGYWRKWQAQDLATPLAFAHNPSRVWEFYHYRREVMGSKEPNAGHRAIAECETRLGKQGRRVVVITQNIDELHRKAGTKNLLEIHGSLFKTRCTSCGVVAENYKSPICPALSGKGAPEPGTQDASIPVEKLPRCEEAGCGGLLRPHVVWFGENLDPAILEEVDRELAHCDLCLVVGTSSVVYPAAMFAPQVAARGVPVAEFNTETTPATNRFRFHFQGPCGTTLPEALA”, the “soluble on expression in E. coli” value is reported as “soluble”.
For “EVQLQQSGAELVRPGALVKLSCKASGFNIKDYYMHWVKQRPEQGLELIGWIDPENGNTIYDPKFQDKASITADTSSNTAYLQLSSLTSEDTAVYYCARDTAAYFDYWGQGTTLTVSSAKTTPPSVYPLAPGSAAQTNSMVTLGCLVKGYFPEPVTVTWNSGSLSSGVHTFPAVLQSDLYTLSSSVTVPSSTWPSETVTCNVAHPASSTKVDKKKIP”, the “soluble on expression in E. coli” value was “soluble”.
In the case of “MSLSMLEKVSFSTTPDFELGFEHCPRQTDYLIAQPKERAKGLVVYIPGFGDDAGEYREKFCLKVAEKYDLAAMTVDYHCFYSRPEVHSATAYEAEDVALIEKLFLAHNLPFAGDTIEEGIEILNKHLASHNQKASITATLIPGKDEYQNAGVLQALDIINAVGHAIEKYSIPAENVILIGSSYGGYIANLATKFAPKTFRAVFDNSSWAQPHFTYIVGREYGYPELIHKTHSHIATKLFLRTAWTLKKGLPNTFDGKRFYVRTFSEDQLGQFSSYEPETYYYFIHAEKDKLALTEHKIQMATYMIQREMNVHMEVMEAADIDGQYIKTIEHGMNLSMLTFFDKAYAHINDHTISLENDFMNGSLVGYDSGDHRYEFDFSTFPVTGRVTQKAVAEGHHHHHH”, the “soluble on expression in E. coli” value is reported as “soluble”.
For “NETEATLPVFTLEQVAEHHSPDDCWMAIHGKVYDLTPYVPNHPGPAGMMLVWCGQESTEAWETKSYGEPHSSLAARLLQRYLIGTLEEIT”, the “soluble on expression in E. coli” value was “soluble”.
For “MIGVASSAVFDLLASDAVFQSQGEEEYRKFQQKNLHVPLPKGIAFPFIKRLLSVNDLSVDPTDPLVEVILLPRNDPDTGLRVLKTIEHYELGMTRAIFMQGKSPYEYIPALNIALFLSGDKKDVEAAIRAGYPAGQVLDSKFEDDETDKTLRIAFDFDGVLAGDESETIMQASGLSEFHSHEVKNVMQPHNPGPLKEFMVRISKIQSVEEKHKKLNPKYENRIRVSIVTARNAPSHERAMNTLKSWGVMANDAFFLGGIEKGKILSVLKPHIFFDDQSGHLKSTSAVAPSVHIPFGITNHVSTVDAIEPEADQVQQVV”, the “soluble on expression in E. coli” value was “not soluble”.
With “MKTIYIYKGSIPEDKKKGDNAIWVTEKKIIDALEKAANSNGESTQSNPKTIALQAAKKETKKSNKKESKTIGYTTTGYVNADGKHIFDTDRINNERFDRKIIIGATLETLDQSSTLQSGEAIVLPAPGKYKSSDQKTVMTAQGPKIIGIHANAKENEETQKFVNWF” the “soluble on expression in E. coli” value was “soluble”.
For “MGSDKIHHHHHHLVNFIRKNVLPQFGFSREHSTLYPLGNGHINQTFLVSDKSKSLVLQRINTQIFTDPKVVIQNAANISQHLLIKRQQLHYPLQVVSPIATVAGALYLDLGEQGFWRAIDYLPHSTTIEVVDTLNQAKLAAEAFGHFAEALSDLNPSCIADVIPNFLNLPQRIAQLREAKAGDTHNRFSHCIDWVGLCLSQTDLLATLVQYEAELPIRICHNDTKINNMLFDNRDMSSMAIIDLDTCMKGYLMYDFGDMVRAFCSPETEDSTNLTNVYARPEIVIAAATSYMESLGGIITPLEKRSLWLGTKVMSLMLGVRFLTDYLNGDTYFGVKYQTHNLDRAINQLTIYQSLLQQEAQLMPLFNS”, the “soluble on expression in E. coli” value was “not soluble”.
In the case of “MSLNAKTVTELRSALLYMRAEDYHLWVNMGLALRELGETGRGLWMEWSATSEKFDSKDAAKKWNSFKPTGTSYQAVFAEAARHGWVNPGRSDAQLTGRRVQTQLKTSHKIKLEFAMSSDTETAKVSYLVDPFLPCKCVVGFFGRGGTAKSSFLATMAAMISQRASTLWVSAEELTDWIKARHIKTGGAPGTLQVFRGIETDEHSGQHIQVFGVYEHLDAALTMSNVAARDAGMPAVRLVVLDTAVALTIWPSGQGPNDDASVKRLLAYMQALAEKHDVTIAFIGHNNKRSSQNTEHFEDMVAGAGAWVTSPRVAFVHARDRREENSYVMRLAKPQLTPRFLVTYKTEPVHTLAQREDAPASVLCRVALGDEYIWGEDESASVFDAATGKDTEEDSGHVLEQRATTVQQVIDALVQMVHMTNAGQDVTRDMVHSALHRIVNGRRWKDVDDRLYMAQFQYRIAIVRGPNNQVLYRKMGPAEGHHHHHH”, the “soluble on expression in E. coli” value is reported as “soluble”.
In the case of “MAAPAAVRRGGRSTSSAMAMDSGRPVTSGILASLCEQWQNQPRTPLSHRSGNLPMSDPDVLIIGAGHNGLTCAAYLARAGLKVKVVERRNVVGGAAVTQEFHPGFRNSVAAYTVSLLNPKVIADLKLHEHGLRIVERKAQNFLPAPDGQYLLTGSNTTAASLARLSAHDAAAFGGFAAELETIADVLRHFVLRAPPNLVVQFGLPAIRESLNALETANRLRALTMEQQRLLLDLFTCSAGEMLDARFEHDLVKALFGFDAIVGNYASPYAAGSAYVMLHHAFGEVNGKKGVWGHAIGGMGAITSAMAAAARAAGAEIETSAGVREVLVEKDRVVGVTLDDGRNVRARFVASNVNPKLLYTRLLPQDALPDDVRRRMQNWKTGSGTFRMNVALSRLPSFTALPGDGDHLTAGIIIAPSLGYMDRAYQDARAHGWSREPVVEMLIPSTLDDSLAPKGQHVASLFCQHVAPELPDGASWDDHRDEVADLMIATVDRYAPGFAASVLGRQILSPLDLEREFGLVGGDIFHGALSLNQLFSARPLLGHADYRGPLKGLYHCGSGAHPGGGVTGAPGHNAAAAILNDHRSLFASRGLEHHHHHH”, the “soluble on expression in E. coli” value is reported as “not soluble”.
